# According to patent US20250034222:
# Test: SEC after Ni-NTA purification, area under monomer and dimer peaks
protein,measurement,value
"WT IL-38 (residues 3-152, initiator methionine, C-terminal His6 tag) (protein) MSLPMARYYIIKYADQKALYTRDGQLLVGDPVADNCCAEKICILPNRGLARTKVPIFLGIQGGSRCLACVETEEGPSLQLEDVNIEELYKGGEEATRFTFFQSSSGSAFRLEAAAWPGWFLCGPAEPQQPVQLTKESEPSARTKFYFEQSW",% monomer upon purification,"WT IL-38 forms ˜20% dimer upon purification, ˜80% monomer"
